Converted amounts (≈) assume the structure as drawn. Where two headings read alike, the source gives them in different places. Blank lines part the entries; values can stand above or below the compound they belong to.
Legend:
Solubility study in PBS = assay type: physicochemical; conditions: aqueous buffer, thermodynamic from solid; PBS (pH 7.2 to 7.4); read-out: Solubility, concentration
Method: The mixture was vortexed for 2 min until the solid was dissolved. The solubility was calculated as: C=m/V, C: concentration, m: sample weight, V: PBS total volume.

[1] = system: human prostate cancer 22RV1 cell subcutaneous xenograft tumor; assay: Pharmacodynamic assessment, 22RV1 xenograft model; assay type: in vivo
Description: Objective: Pre-clinical pharmacodynamic study of compounds for treating BALB/c nude mouse model with 22RV1 cell subcutaneous xenograft tumor (overexpressing PSMA).
Procedures: 22RV1 tumor mass was grafted subcutaneously at the right back of the mice, and the mice were randomized after the mean tumor volume was 150 mm^3. After administration, the animals were monitored daily for health conditions and death, and the routine examinations included observation of the effect on tumor growth and the effect of the treatment on the daily performance of the animals, such as behavioral activities, food and water intake, weight changes (measured once every other day), appearance, or other abnormal conditions. Whether the tumor growth was inhibited or delayed or the tumor was cured was also observed. The tumor volume was measured periodically. The tumor volume was calculated using the following formula: V=1/2×(a×b^2), where a and b denote the long diameter and short diameter of the tumor, respectively.

MDA-MB-231-PSMA = conditions: 72 h, CCK-8
Method: (§1) Major reagents: 1640 folic acid-free medium, fetal bovine serum, penicillin-streptomycin solution, L-glutamine, and CCK8.
(§2) Cells were prepared in advance, trypsinized, collected, counted, diluted to 2×10^4 cells/mL in a complete cell culture medium, and plated in 96-well plates. The diluted cell suspension was added at 100 μL/well, and negative and blank control wells were set on each plate. The 96-well plates with the added cells were incubated overnight at 37° C. in a 5% CO2 incubator.
(§3) Samples were serially diluted with medium (serially 5-fold diluted from 10 μM) to 9 concentrations. The medium in the plates was discarded, and the drug solutions were added at 100 μL per well to a 96-well plate in triplicate. Negative and blank controls were set. The plates were incubated at 37° C. for 72 h in a 5% CO2 incubator.
(§4) A CCK-8 developing solution was added at 10 μL/well (10% of the liquid volume in the wells). The plates were incubated at 37° C. for a proper time (the OD value was controlled within the range of 1.0-2.5 as possible). The plate covers were removed, and the 96-well plates were loaded on a microplate reader (Molecular Devices SpectraMax iD5) to read the measurement at 450 nm.
(§5) Four-parameter curves were fitted using GraphPad Prism 8.0.2 to give IC50 values.

293T-PSMA = conditions: 72 h, CCK-8
Method: as §1, §2, §3, §4, §5

22RV1 = 22RV1 (PSMA overexpression), 72 h, CCK-8
Method: as §1, §2, §3, §4, §5

LNCaP [2] = conditions: LNCap (PSMA overexpression), 72 h, CCK-8
Method: as §1, §2, §3, §4, §5

MDA-MB-231-FOLR1 = conditions: MDA-MB-231-FOLR1, 72 h, CCK-8
Method: as §1, §2, §3, §4, §5

C4-2 = C4-2 (PSMA overexpression), 72 h, CCK-8
Method: as §1, §2, §3, §4, §5

[3] = system: human prostate cancer C4-2 cell subcutaneous xenograft tumor; assay: Pharmacodynamic assessment, C4-2 xenograft model; assay type: in vivo, NCG mouse; conditions: 12.5 mg/kg i.v biw×3, day 23 after grouping
Description: Objective: Pre-clinical assessment of the efficacy of compounds for treating NCG mouse model with C4-2 cell subcutaneous xenograft tumor (overexpressing PSMA).
Procedures: C4-2 cells were subcutaneously grafted at the right back of the mice, and the mice were randomized when the mean tumor volume reached 100-150 mm^3. After the administration, the routine monitoring included the effect on tumor growth and the effect of treatment on the normal behavior of the animals, specifically the activity, food and water intake, weight gain or loss, the eyes, the hair, and other abnormal conditions. Clinical symptoms observed during the study were recorded in the raw data. After the administration was started, the body weight and tumor size of the mice were measured periodically. The tumor volume was calculated using the following formula: V=1/2×(a×b^2), where a and b denote the long diameter and short diameter of the tumor, respectively.

Plasma stability study 1 = assay type: in vitro ADME; conditions: mouse plasma, 37° C.
Method: Procedures: The conjugate compounds were dissolved in acetonitrile-water (1:1) or acetonitrile-water (1:1, containing 0.1% TFA) to prepare 1 mg/mL stock solutions; 10 μL of the 1 mg/mL stock solution was added to 90 μL of plasma, and the mixture was gently mixed well. The plasma drug samples were shaken and incubated in a 37° C. thermostat for 0, 0.5, 1, 2, 4, 6, or 24 h; at the time points, the samples were taken out and 300 μL of methanol solution (containing 10 ng/ml of terfenadine) was added for protein precipitation; the mixture was centrifuged (12 min, 4° C., 12000 rpm) and the supernatant was collected, and preserved in a −80° C. refrigerator; after collection, the samples were loaded for LC-MS analysis.

cathepsin B-human liver = cathepsin B-human liver (Homo sapiens, UniProt P07858); assay: Cathepsin B cleavage study (HPLC); assay type: in vitro ADME; parameters: cathepsin B-human liver (source: Sigma); purchased Sigma; host or cells: human liver (tissue-derived, as the product name says); conditions: 37° C.
Method: Procedures: The conjugate compounds were dissolved in acetonitrile-water (1:1, containing 0.1% TFA) to prepare 1 mg/mL stock solutions; 30 μL of the 1 mg/mL stock solution was added to 570 μL of 50 mM NaOAc (containing 1 mM EDTA and 10 mM cysteine), and the mixture was mixed well; 7 μL of cathepsin B (0.05 U/μL) was added, and the mixture was gently mixed evenly; the reaction system was transferred into a 37° C. thermostat for 0, 1, 2, 4, or 8 h of incubation; samples were taken at each time point for HPLC analysis.

LNCaP [4] = assay: Expansion inhibition of tumor cells (Example 10, CCK-8); assay type: cell-based; conditions: Homo sapiens, LNCap (PSMA overexpression), 72 h
Method: Samples were serially diluted with medium (serially 5-fold diluted from 10 μM) to 9 concentrations. […] Negative and blank controls were set.
as §4

[5] = 12.5 mg/kg iv biw×3, day 31 after grouping

SMILES: CC[C@@H]1C(=O)N(C)c2cnc(Nc3ccc(-c4cn(C5CCC(N(CCOCCC#Cc6cccc7c6CN(C6CCC(=O)NC6=O)C7=O)C(=O)OCc6ccc(NC(=O)[C@H](CCCNC(N)=O)NC(=O)[C@H](Cc7ccccc7)NC(=O)CCCCCN7C(=O)CC(SC[C@H](NC(=O)[C@H](CCCCN)NC(=O)[C@H](CC(=O)O)NC(=O)[C@H](CC(=O)O)NC(=O)Cc8ccc(CNC(=O)NCCCC[C@H](NC(=O)N[C@@H](CCC(=O)O)C(=O)O)C(=O)O)cc8)C(=O)N[C@@H](CCCCNC(=O)CC[C@H](NC(=O)c8ccc(NCc9cnc%10[nH]c(N)nc(=O)c%10n9)cc8)C(=O)O)C(N)=O)C7=O)cc6)CC5)nn4)cc3OC)nc2N1C1CCCC1 (stereo partly shown) [CR20293]
solubility at 2 min (Solubility study in PBS): 20.6 mg/mL (≈ 6.75 mM)
Mean tumor volume [1, 5]: 46.32 mm^3
TGI [1, 5]: 97.51%
Tolerability (body weight, death) ([1]; tumor-bearing BALB/c nude mice, during the study): well tolerated
IC50 (MDA-MB-231-PSMA): 70.6 nM
IC50 (293T-PSMA): 3270 nM
IC50 (22RV1): 16.4 nM
IC50 (LNCaP [2]): 37.9 nM
IC50 (MDA-MB-231-FOLR1): 94.2 nM
IC50 (C4-2): 78 nM
Mean tumor volume [3]: 778.70 mm^3
TGI [3]: 55.47%
CR20274 release rate of compounds in plasma stability study (Plasma stability study 1; 0 h): 0.00%
Principal component residue of compounds in plasma stability study (Plasma stability study 1; 0 h): 83.13%
CR20274 release rate of compounds in plasma stability study (Plasma stability study 1; 0.5 h): 0.17%
remaining at 0.5 h, 100 μg/mL (Plasma stability study 1; 0.5 h, read-out: Principal component residue of compounds in plasma stability study): 75.6%
CR20274 release rate of compounds in plasma stability study (Plasma stability study 1; 1 h): 0.32%
remaining at 1 h, 100 μg/mL (Plasma stability study 1; 1 h, read-out: Principal component residue of compounds in plasma stability study): 75.8%
CR20274 release rate of compounds in plasma stability study (Plasma stability study 1; 2 h): 0.52%
remaining at 2 h, 100 μg/mL (Plasma stability study 1; 2 h, read-out: Principal component residue of compounds in plasma stability study): 67.8%
CR20274 release rate of compounds in plasma stability study (Plasma stability study 1; 4 h): 0.67%
remaining at 4 h, 100 μg/mL (Plasma stability study 1; 4 h, read-out: Principal component residue of compounds in plasma stability study): 69.8%
CR20274 release rate of compounds in plasma stability study (Plasma stability study 1; 6 h): 0.95%
remaining at 6 h, 100 μg/mL (Plasma stability study 1; 6 h, read-out: Principal component residue of compounds in plasma stability study): 70.5%
CR20274 release rate of compounds in plasma stability study (Plasma stability study 1; 24 h): 3.38%
remaining at 24 h, 100 μg/mL (Plasma stability study 1; 24 h, read-out: Principal component residue of compounds in plasma stability study): 45.4%
CR20274 release rate of conjugate compounds after cleavage (cathepsin B-human liver; 0 h): 0%
Principal component residue of conjugate compounds after cleavage (cathepsin B-human liver; 0 h): 100%
CR20274 release rate of conjugate compounds after cleavage (cathepsin B-human liver; 1 h): 17%
Principal component residue of conjugate compounds after cleavage (cathepsin B-human liver; 1 h): 76%
CR20274 release rate of conjugate compounds after cleavage (cathepsin B-human liver; 2 h): 38%
Principal component residue of conjugate compounds after cleavage (cathepsin B-human liver; 2 h): 46%
CR20274 release rate of conjugate compounds after cleavage (cathepsin B-human liver; 4 h): 59%
Principal component residue of conjugate compounds after cleavage (cathepsin B-human liver; 4 h): 27%
CR20274 release rate of conjugate compounds after cleavage (cathepsin B-human liver; 8 h): 64%
Principal component residue of conjugate compounds after cleavage (cathepsin B-human liver; 8 h): 7%

IC50 (LNCaP [4]): 0.3 nM
SMILES: Cc1ncsc1-c1ccc(CNC(=O)C2CC(O)CN2C(=O)C(NC(=O)COCC(=O)NC2(C(=O)NCCCn3cc(-c4ccc(OC(F)(F)F)cc4)c4cc(CN5CCN(Cc6c(Cl)cccc6Cl)CC5)ccc43)CCNCC2)C(C)(C)C)cc1 (stereo not shown) [CR202CC]
